Results on six sequences are retold here after the supplement of paper PMC12455559.

± gives the standard deviation of the averaged measurements.

A short description of data set [1]: PET hydrolysis, aromatic products released after 48 h (umol product/mg enzyme); higher = more PET depolymerization activity. In a few lines:
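Tagless, SUMO-cleaved candidate enzymes were purified on nickel beads, and 5 μg (50 μL) was added to 3.5 mg amorphous PET film or crystalline PET powder in 450 μL buffer. Buffers were 50 mM NaCitrate (pH 4.5, 5.5), 50 mM NaPhosphate (pH 6.5, 7.5) or glycine (pH 8.5). Sealed plates were incubated 48 h at 40 or 60 °C without shaking. PET hydrolysis activity is the aromatic product in the supernatant, read by absorbance at 260 and 280 nm against buffer blanks and expressed per mg enzyme.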

Data set [2] can be described thus: melting temperature (DSF); higher = more thermostable. The gist of the method:
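Candidate enzymes were expressed in E. coli C41(DE3), purified on nickel beads and released by SUMO protease cleavage. For differential scanning fluorimetry, 45 μL enzyme (0 to 0.3 mg/mL) was mixed with 5 μL 5X Sypro Orange in sealed PCR plates on a Bio-Rad CFX96 instrument. Fluorescence was read from 25 °C in steps of 0.3 °C per cycle (ramp 0.3 °C/s) for 250 cycles. The read-out is melting temperature.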

Data set [3] in a line: purified protein yield per well (BCA); higher = higher soluble expression. The gist of the method: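 The measured quantity is purified protein yield per well, determined with the Pierce Rapid Gold BCA kit. Anything below 25 ug (0.1 mg/mL) lies under the detection threshold. Enzymes were expressed in E. coli C41(DE3) in 2 mL autoinduction cultures with 100 µg/mL kanamycin at 37 °C for 2 h, then 18 °C for 40 h, and purified on an OT-2 robot using Ni-charged magnetic beads and SUMO protease release.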

[4] abbreviates: substrate: cryPow, 40 °C, pH 4.5.
[5] abbreviates: substrate: cryPow, 40 °C, pH 5.5.
Where [6] appears, read: substrate: cryPow, 40 °C, pH 6.5.
The mark [7] stands for this setting: substrate: cryPow, 40 °C, pH 7.5.
The mark [8] stands for this setting: substrate: cryPow, 60 °C, pH 4.5.
The mark [9] stands for this setting: substrate: cryPow, 60 °C, pH 5.5.
[10] abbreviates: substrate: cryPow, 60 °C, pH 6.5.
The mark [11] stands for this setting: substrate: cryPow, 60 °C, pH 7.5.
[12] abbreviates: substrate: aFilm, 40 °C, pH 4.5.
The mark [13] stands for this setting: substrate: aFilm, 40 °C, pH 5.5.
The mark [14] stands for this setting: substrate: aFilm, 40 °C, pH 6.5.
Where [15] appears, read: substrate: aFilm, 40 °C, pH 7.5.
Setting [16] is: substrate: aFilm, 60 °C, pH 4.5.
The mark [17] stands for this setting: substrate: aFilm, 60 °C, pH 5.5.
The mark [18] stands for this setting: substrate: aFilm, 60 °C, pH 6.5.
[19] abbreviates: substrate: aFilm, 60 °C, pH 7.5.

Consider “ADNPYQRGPDPTRTSVATENGPFANTSVSVPTGYGFNGGRIYYPTDTSQGTFGAIAISPGYTALFSAELAWMGPWLASHGFVVIGIETNSRNDFDTARGTQLLAALDYLTQQSPVRDRVDPTRLAVAGHSMGGGGALSAATRRSSLKAAVGIAPYSPSSNLANDRVPTMIFSGQADTVVTPSYATSLYNSLPSTTESIYLEVAGADHGFMVGRSNPVMIRTMLPFLKMFIDNDARYSQFLCPLLDSSGVVTSRSTCPLLPSTPTTPPTDPPTDPPTNPPGSANEIVGTQSGRCVDVPNAATTNGTRVQLYTCNKQTNQAWTYTSGKQLQVYGTMCLDAAGSGNGAAVQIYSCHSQTNQQWNVNSNGTISNVQSGRCLDVWSTSNGAQIQLYDCHGQTNQQFRLAALGGGTQTPTPTPTTPPPTGGACDLPSSYRWSSTG [ESM143]”, for which the PET hydrolysis in data set [1] (setting [4]), in data set [1] (setting [5]), in data set [1] (setting [6]), in data set [1] (setting [7]), in data set [1] (setting [8]) and in data set [1] (setting [9]) was less than 3 throughout. Besides, the PET hydrolysis in data set [1] (setting [10]) and in data set [1] (setting [11]) was less than 3 in each case. The melting temperature in data set [2] was 55.9 C. In data set [3], the “purified protein yield per well” value was found to be 55.9 µg.
As to “APGPSAPCSNCTRGPNPTEASLKSDRGPFTTARFSVSGFLKGFGDSTVYYPTNTTGRMGAIAVIPGYLSYESSIEWWGPRLASHGFVVMTMNTSTIYDQPDSRATQLSKALDYLIAQSNTSSSPIYNKIDSTRLGAIGWSMGGGGSLKLSTQRSLNAIIPQAPWYSGSNSFNTIKTPALILACSADTVAPVSVHASPFYNRIPGSTPKAFLEIYGGSHFCANSGYPNEDLLGLYGIAWMKRFIDFDNRYSQFLCGPNHEGDFAISDYRQNCPY [ESM096]”, the PET hydrolysis is less than 3 in data set [1] (setting [4]), less than 3 in data set [1] (setting [5]), 6 in data set [1] (setting [6]) and 22 in data set [1] (setting [7]). Besides, the melting temperature in data set [2] was determined as 52 C. The “purified protein yield per well” value in data set [3] was 33.4 µg.
As to “ADNPYQRGPDPTRASVAAVNGPFVNTSVSVPTGYGFNGGRIYYPTDTSQGTFGAIAISPGYTALFSAELAWMGPWLASHGFVVIGIETNSRNDFDTARGTQLLAALDYLTQQSPVRDRVDPNRLAVSGHSMGGGGALSAAIRRSSLKAAVGITPYSPSQNLANDRVPTMVISGQADTVVTPSYALGLYNSLPASTESVYLEVAGGDHGFMVGRSNPVLIRTMLPFLKMFVDNDSRYSQFLCPLLDSSGVVTYRSTCPLLPTNPTTPPPTGTPTPTPTSTPTPTPTPTTPPPSGSANE [ESM091]”, the PET hydrolysis in data set [1] (setting [12]), in data set [1] (setting [13]), in data set [1] (setting [14]), in data set [1] (setting [15]), in data set [1] (setting [16]) and in data set [1] (setting [17]) was less than 3 each time. For the same sequence, the PET hydrolysis in data set [1] (setting [18]) is less than 3; in data set [1] (setting [19]), less than 3; in data set [1] (setting [4]) it was 13.5 ± 0.71; in data set [1] (setting [5]), 28 ± 1.4; in data set [1] (setting [6]), 10; in data set [1] (setting [7]) it was less than 3. Also, the PET hydrolysis in data set [1] (setting [8]), in data set [1] (setting [9]), in data set [1] (setting [10]) and in data set [1] (setting [11]) was less than 3 in each case. In data set [2], this sequence had a melting temperature of 62.5 C. The “purified protein yield per well” value in data set [3] came out at 336 µg.
In the case of “RPAAPADSPYQRGPDPTVSSVAAQRGTFATAELTVPPGNGFNGGKIYYPTDTSQGTWAAVAAVPGYTAKWAAEGAWMGPWLASFGFVVIGIDTNSPNDYDTARGTQLLAALDYLTQRSPVRDRVDPGRLGVIGHSMGGGGAINAAERRPSLKAALPLAPFSPSQNLSTLRVPTMIMGARDDGTVTPSYLNGLYGGMPATTPSAYIELTSGGHGFPTWGNSNVTRRTIPWLKIFLDEDTRYTQFLCPSLPDRTGISRSQVTCGSVPGDGTTPPPATGRQVVGAASGRCLDVPGSSQANGTQLQLWDCLDQAGQKWARTDAGELRVLGGKCLDAEASGTAPGTRAVVWDCHGGTNQRWNVTPDGTITSAQSGLCLDAYNAGTANGTRTVLWTCNGGSNQRWTWR [TEP102]”, the PET hydrolysis in data set [1] (setting [12]), in data set [1] (setting [13]), in data set [1] (setting [14]), in data set [1] (setting [15]), in data set [1] (setting [16]) and in data set [1] (setting [17]) was less than 3 each time. The PET hydrolysis in data set [1] (setting [18]) is less than 3; in data set [1] (setting [19]), less than 3; in data set [1] (setting [4]) it was 5.5 ± 0.71; in data set [1] (setting [5]), 13 ± 2.8; in data set [1] (setting [6]), 25.5 ± 0.71; in data set [1] (setting [7]), 26 ± 1.4. In addition, the PET hydrolysis in data set [1] (setting [8]), in data set [1] (setting [9]), in data set [1] (setting [10]) and in data set [1] (setting [11]) was less than 3 in each case. Also, the melting temperature in data set [2] was found to be 60.4 C. The “purified protein yield per well” value in data set [3] stood at 252 µg.
On to “ADQRGPDPTVQSIEAARGPFATSTSRVSSLVSGFGGGTIYYPTDTSQGRFGGVVIAPGYTAGESSIAWLGPRLASQGFVVFTIDTLTRVDQPASRGRQLLAAADYLTQRSDVADRVDPARLAVMGHSMGGGGTLEAAKSRPGLKAIIPLTPWNLDKTWPEITTPTLIFGAQNDSVASVVTHARPFYQSLPATTPRSYLELRGASHFAPNLSNTTIAKYSIAWLKRFVDDDQRYTQFLCPAPADTALSDVRTSCPF [TEP091]”, for which the PET hydrolysis in data set [1] (setting [4]) is less than 3; in data set [1] (setting [5]) it was 5; in data set [1] (setting [6]), 10; in data set [1] (setting [7]) it was 17. For the same sequence, in data set [2], the melting temperature worked out at 55.6 C. Moreover, the “purified protein yield per well” value in data set [3] came to 36.2 µg.
In the case of “MAAGPAAVAADNPYQRGPDPTPASVAAPNGPFATAQVSVPPGYGFNGGMIYYPTDTSQGTFGAIAISPGYTALFSVELAWMGPRLASQGFVVIGIETNDRNDFDTARGTQLLAALDYLTGQSSVRSRVDPNRLAVAGHSMGGGGAFSAALRRPALKAAVGFTPFSPSQNLTNMQVPALLYSGQYDTVTTPSSVSNLYNGLPSTTEGAYIEAAGLDHSFPTRPNTLLMRTMIPWVKIFLDNDLRYTQFLCPLMDSSGVLQYRNTCPLVPPGLPSPSPTTAPPTTAPPTTAPPPTTAPPPTTAPPPTTAPPPTTNPPAGACSVSYTTNQWPGGFTRDVRITNTGGSVSSWTLAFTAGSNVSLSNGWNGDWSQSGSQITVRNAAWNGSLASGATVSIGFQGTFSGSTLPPLSNITLNGAACAS [DP068]”, the PET hydrolysis in data set [1] (setting [5]) was 3; in data set [1] (setting [6]), 21; in data set [1] (setting [7]), 36; in data set [1] (substrate: cryPow, 40 °C, pH 8.5) it was 52; in data set [1] (setting [9]) it was less than 3; in data set [1] (setting [10]), 7. The PET hydrolysis in data set [1] (setting [11]) came out at 17; in data set [1] (substrate: cryPow, 60 °C, pH 8.5) it was 20. For the same sequence, the melting temperature in data set [2] is 63.4 C. In addition, in data set [3], the “purified protein yield per well” value came to 60 µg.
